Assays:
Test in all cases: flow cytometry, transfected cells
human CD33 D18R = human CD33 D18R (human, UniProt P20138 19-364)
human CD33 F44D = human CD33 F44D (human, UniProt P20138 18-364)
human CD33 N20S = human CD33 N20S (human, UniProt P20138 18-364)
human CD33 Q24T = human CD33 Q24T (human, UniProt P20138 18-364)

Measured: binding result

Chain of human CD33 Q24T (P20138 18-364 Q24T limits assumed): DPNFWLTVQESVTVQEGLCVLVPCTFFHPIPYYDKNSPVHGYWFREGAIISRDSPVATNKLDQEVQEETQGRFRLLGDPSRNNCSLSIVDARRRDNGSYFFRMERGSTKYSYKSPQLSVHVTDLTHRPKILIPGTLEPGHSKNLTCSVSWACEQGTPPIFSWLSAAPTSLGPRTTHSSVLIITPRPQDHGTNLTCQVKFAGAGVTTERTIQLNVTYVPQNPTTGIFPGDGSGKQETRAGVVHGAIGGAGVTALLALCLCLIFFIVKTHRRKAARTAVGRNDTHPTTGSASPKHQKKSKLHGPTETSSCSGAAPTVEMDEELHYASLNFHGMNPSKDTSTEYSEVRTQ
Chain of human CD33 D18R (P20138 18-364 D18R limits assumed): as the sequence (P20138 18-364 Q24T limits assumed) above, with D1R, T7Q counted along it
Chain of human CD33 N20S (P20138 18-364 N20S limits assumed): as the sequence (P20138 18-364 Q24T limits assumed) above, with N3S, T7Q counted along it
Chain of human CD33 F44D (P20138 18-364 F44D limits assumed): as the sequence (P20138 18-364 Q24T limits assumed) above, with T7Q, F27D counted along it

B1: Refmab #3 (antibody, human IgG1, V domains shown)
VH: QVQLVQSGAEVKKPGSSVKVSCKASGYTFTDYNMHWVRQAPGQGLEWIGYIYPYNGGTGYNQKFKSKATITADESTNTAYMELSSLRSEDTAVYYCARGRPAMDYWGQGTLVTVSS
VL: DIQMTQSPSSLSASVGDRVTITCRASESVDNYGISFMNWFQQKPGKAPKLLIYAASNQGSGVPSRFSGSGSGTDFTLTISSLQPDDFATYYCQQSKEVPWTFGQGTKVEIK
no binding (tested: below 20%): all assays above

— patent publication US20260242735A1 (UNIVERSIT T BASEL, published 2026)
